Results reported in publication PMC5001591.

Key:
Conditions in all cases: EMSA: 4 nM 32P-RNA, 1X RNA Structure Buffer, 1 ug yeast RNA in 10 ul, 37 C 15 min (plus 1 h room temperature with mRNA); native 6% PAGE, 0.5X TBE, 4 C; pH and …
Hfq [1] = molecular target: Hfq (UniProt P0A6X3); experiment: footprinting (RNase T1)
Hfq [2] = molecular target: Hfq (UniProt P0A6X3); experiment: EMSA
Hfq [3] = experiment: EMSA

Sequence of Hfq (UniProt P0A6X3) (P0A6X3 2-102): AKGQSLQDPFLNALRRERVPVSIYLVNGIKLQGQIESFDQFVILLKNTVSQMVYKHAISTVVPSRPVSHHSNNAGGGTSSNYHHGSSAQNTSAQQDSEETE

| Substance | binding (Hfq [1]) | Kd (Hfq [2]) | Kd (Hfq [3]) |
| --- | --- | --- | --- |
| GGGUUCAAACUAUCACAUAAAUAAGAUUUAUAUAUAAUUUAUAUUAUUCAGGCAAUGAAUUACUUUUGCAAGCCAUCGCAUUCUCUUAUGUUAUUAAUGAGUUAUGCUGAUUUGUUAAGCAGUUUUAUCAGGCUUGAAAUGGCGUCCAGCCCCGACAGGUGAAUCGUCGGGGCUGAUUUUUUC [SdsN178] | binds | 0.028 µM |  |
| SdsN178 |  |  | 0.028 µM |
| GGGAUUCAGGCAAUGAAUUACUUUUGCAAGCCAUCGCAUUCUCUUAUGUUAUUAAUGAGUUAUGCUGAUUUGUUAAGCAGUUUUAUCAGGCUUGAAAUGGCGUCCAGCCCCGACAGGUGAAUCGUCGGGGCUGAUUUUUUC [SdsN137] | binds | 0.08 µM |  |
| SdsN137 |  |  | 0.08 µM |
